From the supplement of paper PMC10065799, “High-throughput profiling of sequence recognition by tyrosine kinases and SH2 domains using bacterial peptide display” (eLife, 2023)

Columns and labels:
Fes = Fes (UniProt P07332); assay: phosphorylation enrichment, bacterial display (enrichment ratio); higher = better substrate or ligand; peptides without Tyr show the background
EPHB2 = EPHB2 (UniProt P29323); assay: as above
AncSZ = assay: as above
Fer (mouse) = assay: as above
FGFR3 = FGFR3 (UniProt P22607); assay: as above
Jak2 = Jak2 (UniProt O60674); assay: as above
MERTK = MERTK (UniProt Q12866); assay: as above
Fyn = Fyn (UniProt P06241); assay: as above
FGFR1 = FGFR1 (UniProt P11362); assay: as above
c-Abl (mouse) = assay: as above
Hck = Hck (UniProt P08631); assay: as above
c-Src = assay: as above
EPHB1 = EPHB1 (UniProt P54762); assay: as above
SHP2-C SH2 = assay: SH2 binding enrichment of the phosphorylated peptide, bacterial display (enrichment ratio); higher = better substrate or ligand; peptides without Tyr show the background
c-Src SH2 = assay: as above
Grb2 SH2 = Grb2 SH2 (UniProt P62993); assay: as above
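Wherever SH2 binding enrichment of the phosphorylated peptide, bacterial display is given: peptide library displayed on the E. coli surface as eCPX fusions, selected cells deep-sequenced, score is each peptide's frequency after selection divided by its frequency in the input.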
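Wherever phosphorylation enrichment, bacterial display is given: 11-residue human phosphosite peptides and single-mutation variants displayed on the E. coli surface, counted by deep sequencing, each peptide's frequency after selection divided by its frequency in the unselected input library; frequency after pTyr selection over input frequency; kinase dosed for 20-30% of maximal phosphorylation in three min.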

FGFR1, sequence (P11362 whole entry, looked up): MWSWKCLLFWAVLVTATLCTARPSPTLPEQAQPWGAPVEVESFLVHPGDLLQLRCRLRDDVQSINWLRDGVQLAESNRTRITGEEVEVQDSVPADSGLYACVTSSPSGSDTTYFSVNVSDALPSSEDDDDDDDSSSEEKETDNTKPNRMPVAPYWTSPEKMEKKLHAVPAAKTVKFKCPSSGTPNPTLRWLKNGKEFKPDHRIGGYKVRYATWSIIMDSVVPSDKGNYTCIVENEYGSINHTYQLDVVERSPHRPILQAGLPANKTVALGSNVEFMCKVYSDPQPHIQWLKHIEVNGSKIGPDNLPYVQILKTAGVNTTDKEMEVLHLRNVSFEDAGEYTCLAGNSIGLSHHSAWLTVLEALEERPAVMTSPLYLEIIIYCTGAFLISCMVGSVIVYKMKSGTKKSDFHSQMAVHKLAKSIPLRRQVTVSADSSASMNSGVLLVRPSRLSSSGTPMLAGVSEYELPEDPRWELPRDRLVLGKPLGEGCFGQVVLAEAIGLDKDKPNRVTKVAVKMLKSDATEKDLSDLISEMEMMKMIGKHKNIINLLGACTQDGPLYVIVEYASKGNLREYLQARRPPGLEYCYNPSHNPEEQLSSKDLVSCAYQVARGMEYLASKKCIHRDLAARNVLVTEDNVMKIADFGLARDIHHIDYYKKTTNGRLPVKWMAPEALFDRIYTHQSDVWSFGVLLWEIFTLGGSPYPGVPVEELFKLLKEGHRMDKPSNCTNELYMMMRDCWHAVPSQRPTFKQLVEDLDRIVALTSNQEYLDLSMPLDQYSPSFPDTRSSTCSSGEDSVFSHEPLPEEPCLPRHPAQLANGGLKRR
Jak2, sequence (O60674 whole entry, looked up): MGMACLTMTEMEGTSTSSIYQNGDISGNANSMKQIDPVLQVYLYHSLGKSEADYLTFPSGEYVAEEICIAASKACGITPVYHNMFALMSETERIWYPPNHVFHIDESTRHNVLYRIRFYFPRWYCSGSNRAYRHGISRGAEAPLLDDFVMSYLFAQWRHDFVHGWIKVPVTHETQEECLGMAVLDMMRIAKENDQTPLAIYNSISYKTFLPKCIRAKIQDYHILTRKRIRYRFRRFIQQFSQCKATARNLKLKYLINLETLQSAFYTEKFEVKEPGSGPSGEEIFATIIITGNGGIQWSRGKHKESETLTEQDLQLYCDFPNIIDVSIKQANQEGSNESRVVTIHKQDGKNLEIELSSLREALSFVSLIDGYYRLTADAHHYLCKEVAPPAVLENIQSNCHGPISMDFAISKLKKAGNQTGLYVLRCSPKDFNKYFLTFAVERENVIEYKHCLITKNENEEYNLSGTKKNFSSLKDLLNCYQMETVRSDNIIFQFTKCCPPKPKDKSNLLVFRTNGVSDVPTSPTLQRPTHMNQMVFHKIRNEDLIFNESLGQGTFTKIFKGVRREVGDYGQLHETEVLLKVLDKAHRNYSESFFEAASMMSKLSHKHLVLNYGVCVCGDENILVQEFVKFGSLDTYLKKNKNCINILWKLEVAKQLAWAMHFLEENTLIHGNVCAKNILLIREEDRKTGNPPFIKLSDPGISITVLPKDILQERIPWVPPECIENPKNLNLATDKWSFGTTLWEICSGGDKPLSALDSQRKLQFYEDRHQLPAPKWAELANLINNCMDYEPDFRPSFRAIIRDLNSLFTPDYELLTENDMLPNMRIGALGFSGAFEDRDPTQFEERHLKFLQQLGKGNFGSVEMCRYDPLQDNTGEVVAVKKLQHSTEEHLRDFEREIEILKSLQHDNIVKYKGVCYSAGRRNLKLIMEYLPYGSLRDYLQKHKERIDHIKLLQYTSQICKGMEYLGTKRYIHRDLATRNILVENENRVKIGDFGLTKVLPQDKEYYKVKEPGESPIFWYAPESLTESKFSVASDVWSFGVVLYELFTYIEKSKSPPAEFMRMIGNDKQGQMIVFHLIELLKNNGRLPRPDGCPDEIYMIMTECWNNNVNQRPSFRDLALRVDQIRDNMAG
Hck, sequence (P08631 whole entry, looked up): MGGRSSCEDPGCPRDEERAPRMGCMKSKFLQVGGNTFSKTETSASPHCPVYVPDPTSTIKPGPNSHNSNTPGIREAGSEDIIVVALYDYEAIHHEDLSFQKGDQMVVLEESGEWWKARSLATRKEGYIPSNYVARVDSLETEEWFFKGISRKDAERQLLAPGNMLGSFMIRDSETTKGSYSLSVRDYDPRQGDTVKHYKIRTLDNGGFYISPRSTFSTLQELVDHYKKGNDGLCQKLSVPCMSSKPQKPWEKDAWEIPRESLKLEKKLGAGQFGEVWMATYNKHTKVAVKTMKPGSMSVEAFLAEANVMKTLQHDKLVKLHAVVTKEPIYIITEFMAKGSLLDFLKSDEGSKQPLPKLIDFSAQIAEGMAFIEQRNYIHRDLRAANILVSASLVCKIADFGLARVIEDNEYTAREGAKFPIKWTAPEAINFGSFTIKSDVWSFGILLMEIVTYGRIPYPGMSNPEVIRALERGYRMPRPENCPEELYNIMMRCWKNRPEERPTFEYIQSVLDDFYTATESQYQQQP
MERTK, sequence (Q12866 whole entry, looked up): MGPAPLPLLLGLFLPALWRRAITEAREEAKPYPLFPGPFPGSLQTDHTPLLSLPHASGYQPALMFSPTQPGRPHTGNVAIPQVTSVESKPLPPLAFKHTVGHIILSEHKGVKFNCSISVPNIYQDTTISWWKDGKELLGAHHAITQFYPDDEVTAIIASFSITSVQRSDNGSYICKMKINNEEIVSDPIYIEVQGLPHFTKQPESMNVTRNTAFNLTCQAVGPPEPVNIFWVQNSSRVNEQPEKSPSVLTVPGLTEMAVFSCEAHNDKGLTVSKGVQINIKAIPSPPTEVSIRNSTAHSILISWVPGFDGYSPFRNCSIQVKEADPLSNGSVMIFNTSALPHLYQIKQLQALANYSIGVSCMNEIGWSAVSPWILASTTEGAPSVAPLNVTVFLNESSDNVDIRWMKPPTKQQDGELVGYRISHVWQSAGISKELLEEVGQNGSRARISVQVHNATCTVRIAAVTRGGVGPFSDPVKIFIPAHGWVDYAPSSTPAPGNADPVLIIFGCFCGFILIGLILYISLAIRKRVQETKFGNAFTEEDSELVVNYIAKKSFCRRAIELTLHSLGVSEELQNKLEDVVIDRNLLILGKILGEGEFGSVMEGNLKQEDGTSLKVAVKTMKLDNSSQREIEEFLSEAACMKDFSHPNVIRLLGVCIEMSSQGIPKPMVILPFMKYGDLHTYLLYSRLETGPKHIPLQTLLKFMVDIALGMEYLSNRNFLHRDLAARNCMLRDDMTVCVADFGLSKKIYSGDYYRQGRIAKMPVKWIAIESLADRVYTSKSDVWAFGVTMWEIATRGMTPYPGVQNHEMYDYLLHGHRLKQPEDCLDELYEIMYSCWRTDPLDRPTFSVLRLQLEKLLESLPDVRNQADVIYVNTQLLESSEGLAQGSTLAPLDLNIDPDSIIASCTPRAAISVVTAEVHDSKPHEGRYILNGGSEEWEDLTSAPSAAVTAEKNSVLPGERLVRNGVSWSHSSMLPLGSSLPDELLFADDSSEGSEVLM
Grb2 SH2, sequence (P62993 whole entry, looked up, the tested form may be a part): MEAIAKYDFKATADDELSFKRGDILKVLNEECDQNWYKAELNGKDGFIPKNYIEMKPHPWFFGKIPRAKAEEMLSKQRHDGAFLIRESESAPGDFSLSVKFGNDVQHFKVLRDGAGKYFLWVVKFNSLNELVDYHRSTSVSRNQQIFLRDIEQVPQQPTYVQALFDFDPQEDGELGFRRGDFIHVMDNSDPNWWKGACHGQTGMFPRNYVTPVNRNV
Fyn, sequence (P06241 whole entry, looked up): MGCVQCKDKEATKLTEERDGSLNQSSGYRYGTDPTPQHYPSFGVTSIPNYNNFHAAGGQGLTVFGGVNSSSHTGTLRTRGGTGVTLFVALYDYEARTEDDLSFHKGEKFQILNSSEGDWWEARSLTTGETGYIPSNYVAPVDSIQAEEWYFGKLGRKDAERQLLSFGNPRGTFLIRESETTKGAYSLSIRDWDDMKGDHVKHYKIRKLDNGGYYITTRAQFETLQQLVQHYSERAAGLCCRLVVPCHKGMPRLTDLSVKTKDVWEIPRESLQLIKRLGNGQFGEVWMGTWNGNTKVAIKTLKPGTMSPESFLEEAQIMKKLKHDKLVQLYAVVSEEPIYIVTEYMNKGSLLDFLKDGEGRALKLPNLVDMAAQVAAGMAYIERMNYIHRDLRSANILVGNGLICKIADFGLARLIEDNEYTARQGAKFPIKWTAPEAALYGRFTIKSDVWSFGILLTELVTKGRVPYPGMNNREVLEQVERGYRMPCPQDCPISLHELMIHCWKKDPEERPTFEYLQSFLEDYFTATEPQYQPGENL
FGFR3, sequence (P22607 whole entry, looked up): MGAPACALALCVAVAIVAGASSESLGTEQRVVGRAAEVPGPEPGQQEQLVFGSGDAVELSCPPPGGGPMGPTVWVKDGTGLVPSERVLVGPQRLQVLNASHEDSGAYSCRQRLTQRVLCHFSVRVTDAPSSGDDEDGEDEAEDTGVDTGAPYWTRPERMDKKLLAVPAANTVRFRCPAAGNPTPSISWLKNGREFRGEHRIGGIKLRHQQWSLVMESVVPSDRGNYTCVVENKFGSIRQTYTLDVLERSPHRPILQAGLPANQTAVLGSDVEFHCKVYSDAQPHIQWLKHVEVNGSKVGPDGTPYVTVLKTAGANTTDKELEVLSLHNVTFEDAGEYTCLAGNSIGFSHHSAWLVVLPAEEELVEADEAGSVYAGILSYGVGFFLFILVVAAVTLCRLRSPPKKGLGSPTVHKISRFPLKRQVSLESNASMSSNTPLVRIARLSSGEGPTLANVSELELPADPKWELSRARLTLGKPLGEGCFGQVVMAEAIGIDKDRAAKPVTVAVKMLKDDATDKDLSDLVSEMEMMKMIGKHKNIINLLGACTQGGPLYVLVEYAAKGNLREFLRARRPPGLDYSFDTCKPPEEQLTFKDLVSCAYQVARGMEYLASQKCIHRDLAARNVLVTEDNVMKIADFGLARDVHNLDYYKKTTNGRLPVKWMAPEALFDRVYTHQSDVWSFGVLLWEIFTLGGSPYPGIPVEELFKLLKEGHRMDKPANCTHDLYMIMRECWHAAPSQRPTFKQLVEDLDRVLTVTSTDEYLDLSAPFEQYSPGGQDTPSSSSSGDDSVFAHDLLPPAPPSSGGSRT

| Sequence | phosphorylation enrichment (Fes) | phosphorylation enrichment (EPHB2) | phosphorylation enrichment (AncSZ) | phosphorylation enrichment (Fer (mouse)) | phosphorylation enrichment (FGFR3) | phosphorylation enrichment (Jak2) | phosphorylation enrichment (MERTK) | phosphorylation enrichment (Fyn) | phosphorylation enrichment (FGFR1) | phosphorylation enrichment (c-Abl (mouse)) | phosphorylation enrichment (Hck) | phosphorylation enrichment (c-Src) | phosphorylation enrichment (EPHB1) | SH2 binding enrichment (SHP2-C SH2) | SH2 binding enrichment (c-Src SH2) | SH2 binding enrichment (Grb2 SH2) |
| --- | --- | --- | --- | --- | --- | --- | --- | --- | --- | --- | --- | --- | --- | --- | --- | --- |
| QITQVYGFYDE [PPP2CA_Y127] | 1.21 | 1.12 | 1.24 | 1.3 | 1.27 | 1.06 | 1.58 | 9.45 | 0.615 | 1.01 | 3.7 | 6.85 | 0.716 | 0.693 | 1.72 | 0.867 |
| QKKEEYKMALF [F8_Y1990_R1985Q_YF] | 0.866 | 0.48 | 0.736 | 0.498 | 0.509 | 0.552 | 0.811 | 0.421 | 0.716 | 0.774 | 0.561 | 0.37 | 0.645 | 0.481 | 0.483 | 0.73 |
| QKPLGYYRVNL [GALE_Y104_D103G] | 0.641 | 0.482 | 0.667 | 0.51 | 0.826 | 2.37 | 0.516 | 0.528 | 0.636 | 0.455 | 0.497 | 0.386 | 0.445 | 1.3 | 0.961 | 1.27 |
| QLCVNYPGGFT [PROS1_Y259_YF] | 1.61 | 0.697 | 1.45 | 0.692 | 0.904 | 0.907 | 0.552 | 0.675 | 0.698 | 0.835 | 0.85 | 0.37 | 0.792 | 0.613 | 0.538 | 0.73 |
| QLHEHCKIHKE [NSMAF_Y626_Y626C] | 0.612 | 0.422 | 0.682 | 0.522 | 0.651 | 0.666 | 0.629 | 0.633 | 0.745 | 0.728 | 0.649 | 0.724 | 0.343 | 1.15 | 0.945 | 1.37 |
| QLPATCMNLGP [MST1R_Y1360_Y1360C] | 1.2 | 0.683 | 1.29 | 0.621 | 0.913 | 1.14 | 0.533 | 0.817 | 0.615 | 1.06 | 0.554 | 0.632 | 0.668 | 0.439 | 0.539 | 0.822 |
| QLPATYMNLGP [MST1R_Y1360] | 0.747 | 0.548 | 0.547 | 0.406 | 0.616 | 1.42 | 6.84 | 0.706 | 0.766 | 0.87 | 0.741 | 1.23 | 2.99 | 1.46 | 1.92 | 11 |
| QMEKIYTQQIQ [CCNB1IP1_Y125] | 1.06 | 0.466 | 1.12 | 0.651 | 0.5 | 1.07 | 1.19 | 0.663 | 0.673 | 1.03 | 0.628 | 1.55 | 0.747 | 0.398 | 0.478 | 0.807 |
| QMVGKYASSFM [AVPR2_Y124_M123K_YF] | 0.992 | 0.341 | 0.613 | 0.431 | 0.626 | 0.774 | 0.642 | 0.564 | 0.516 | 1.15 | 0.413 | 0.635 | 0.772 | 0.732 | 0.467 | 0.894 |
| QNTGHYSSDNT [TMEFF2_Y361] | 0.532 | 0.442 | 0.461 | 0.43 | 0.691 | 0.443 | 0.544 | 0.545 | 0.474 | 0.49 | 0.544 | 0.704 | 0.446 | 0.506 | 0.347 | 0.581 |
| QNTGHYSSENT [TMEFF2_Y361_D364E] | 1.33 | 0.389 | 0.66 | 0.868 | 0.548 | 0.575 | 0.908 | 0.903 | 0.828 | 0.561 | 0.468 | 0.588 | 0.814 | 0.735 | 0.467 | 0.95 |
| QPGTDYKIFRF [FN1_Y1970_L1974R_YF] | 2.04 | 0.567 | 1.77 | 0.756 | 1.28 | 1.64 | 1.17 | 0.529 | 1.22 | 1.74 | 1.18 | 1.89 | 0.754 | 0.635 | 0.497 | 0.644 |
| QPRDIYHQTWA [GBA_Y244_G241R] | 0.913 | 0.627 | 0.821 | 0.526 | 1.38 | 0.787 | 3.54 | 1.77 | 2.91 | 1.15 | 2.72 | 1.99 | 0.574 | 0.942 | 0.709 | 0.945 |
| QQIYTYDSGIH [JUP_Y22_T19I] | 0.923 | 1.98 | 1.02 | 4.16 | 1.84 | 0.788 | 11.1 | 10.3 | 1.86 | 0.91 | 4.94 | 6.68 | 3.57 | 0.834 | 0.666 | 0.922 |
| QQLVAYFSKHA [SRC_Y232_YF] | 1.15 | 0.547 | 0.972 | 0.48 | 0.813 | 0.936 | 0.573 | 0.53 | 0.621 | 0.806 | 0.652 | 0.744 | 0.664 | 0.699 | 0.644 | 1.57 |
| QRHYVYYYSYL [PTEN_Y176_R173H] | 1.91 | 2.16 | 1.79 | 1.29 | 6.74 | 5.22 | 8.74 | 3.5 | 7.4 | 1.84 | 3.31 | 5.11 | 3.51 | 1.12 | 0.698 | 0.688 |
| QRIYQYIQSRF [DYRK1B_Y273] | 2.48 | 1.63 | 3.1 | 5.21 | 2 | 1.82 | 6.41 | 1.68 | 1.25 | 3.62 | 3.87 | 3.17 | 6.1 | 1.58 | 2.05 | 1.26 |

| Sequence | phosphorylation enrichment (Fes) | phosphorylation enrichment (EPHB2) | phosphorylation enrichment (AncSZ) | phosphorylation enrichment (Fer (mouse)) | phosphorylation enrichment (FGFR3) | phosphorylation enrichment (Jak2) | phosphorylation enrichment (MERTK) | phosphorylation enrichment (Fyn) | phosphorylation enrichment (FGFR1) | phosphorylation enrichment (c-Abl (mouse)) | phosphorylation enrichment (Hck) | phosphorylation enrichment (c-Src) | phosphorylation enrichment (EPHB1) | SH2 binding enrichment (SHP2-C SH2) | SH2 binding enrichment (c-Src SH2) | SH2 binding enrichment (Grb2 SH2) |
| --- | --- | --- | --- | --- | --- | --- | --- | --- | --- | --- | --- | --- | --- | --- | --- | --- |
| QRRLVYFEGGA [RYR1_Y245_YF] | 1.39 | 0.995 | 3.89 | 1.33 | 0.902 | 0.825 | 0.531 | 1.02 | 1.34 | 0.912 | 1.13 | 0.376 | 1.18 | 0.944 | 0.727 | 1.58 |
| QSGGQYSSQGL [TNNI3K_Y788_A785G] | 0.779 | 0.434 | 0.655 | 0.401 | 0.854 | 0.835 | 0.4 | 0.488 | 0.486 | 0.676 | 0.72 | 0.495 | 0.506 | 0.446 | 0.577 | 0.787 |
| QSSALYEDCFL [ASS1_Y83_R86C_YF] | 2.83 | 7.25 | 1.92 | 16.4 | 0.785 | 1.96 | 4.12 | 3.02 | 0.852 | 1.15 | 2.28 | 4.69 | 10.4 | 0.794 | 0.831 | 1.13 |
| QTSSNYDDAMQ [ZNF281_Y531_I527T] | 1.02 | 1.14 | 1.06 | 0.741 | 0.975 | 0.884 | 0.58 | 0.756 | 0.86 | 0.476 | 0.57 | 0.44 | 0.825 | 0.716 | 0.794 | 0.823 |
| QWRTKYETDAI [MYH7_Y1375] | 1.36 | 0.432 | 0.971 | 0.543 | 0.624 | 1.74 | 0.545 | 0.643 | 0.4 | 1.04 | 0.355 | 0.528 | 0.663 | 0.521 | 0.542 | 0.849 |
| RAMPVYKEAEH [TP63_Y231_K233E] | 1.01 | 0.67 | 1.02 | 0.602 | 0.663 | 0.832 | 0.503 | 0.511 | 0.763 | 0.665 | 0.664 | 0.563 | 0.561 | 0.58 | 0.508 | 0.98 |
| RASSVYTRSTG [CCR5_Y339] | 1.5 | 0.552 | 0.651 | 0.552 | 0.47 | 0.655 | 1.21 | 0.608 | 0.48 | 0.721 | 0.741 | 0.875 | 0.591 | 0.489 | 0.472 | 0.809 |
| RAWPPYTVAAD [ANKZF1_Y572_R569W] | 1.11 | 0.517 | 0.884 | 0.631 | 0.589 | 0.683 | 0.475 | 0.571 | 0.573 | 0.737 | 0.597 | 0.618 | 0.678 | 0.697 | 0.556 | 1.08 |
| RCQDLYSARDL [SART1_Y249_R245C] | 1.76 | 1.06 | 1.95 | 2.59 | 1.22 | 1.97 | 4.7 | 4.61 | 0.876 | 1.41 | 9.83 | 6.42 | 1.63 | 0.605 | 0.391 | 0.825 |
| RDWSHYFKIIE [KRT18_Y129] | 1.72 | 1.08 | 1.46 | 0.412 | 0.997 | 1.35 | 0.296 | 0.793 | 0.687 | 0.823 | 0.57 | 0.705 | 0.824 | 0.436 | 0.479 | 0.776 |
| REATAYLHGRL [AGXT_Y297_A295T] | 0.793 | 0.662 | 0.665 | 0.615 | 0.533 | 0.871 | 0.374 | 0.595 | 0.534 | 0.63 | 0.488 | 0.521 | 0.539 | 0.571 | 0.483 | 0.794 |
| REEKNDKLKET [BCLAF1_Y459_Y459D] | 1.11 | 0.606 | 1.32 | 0.441 | 0.908 | 0.685 | 0.657 | 0.833 | 0.868 | 0.596 | 0.788 | 0.356 | 0.773 | 0.747 | 0.552 | 1.16 |
| REHTVYWEPRK [MAGEA4_Y240_G241W] | 0.831 | 1.19 | 1.1 | 0.607 | 2.42 | 0.888 | 3.77 | 1.39 | 2.31 | 8.8 | 5.92 | 1.85 | 4.33 | 1.39 | 0.724 | 1.08 |
| RELGKYGLQAF [ALDH2_Y497_E496K_YF] | 0.926 | 0.577 | 1 | 0.537 | 0.582 | 0.774 | 0.612 | 0.526 | 0.578 | 0.786 | 0.584 | 0.491 | 0.489 | 0.503 | 0.438 | 0.834 |
| RETPLYKACER [ASB2_Y162] | 1.13 | 0.573 | 0.777 | 0.504 | 0.759 | 0.632 | 0.527 | 0.457 | 0.457 | 1.02 | 0.577 | 0.568 | 0.441 | 1.27 | 0.855 | 1.42 |
| RFLRGYEQDAF [HLA-A_Y137_R138E_YF] | 1.21 | 0.555 | 0.935 | 0.51 | 0.586 | 1.36 | 0.536 | 0.636 | 0.466 | 0.778 | 0.629 | 0.533 | 0.498 | 0.746 | 0.765 | 0.894 |
